Measured values published in patent US20180334496A1 (KODIAK SCIENCES, published 2018).
Several values for one entry are separate records, joined by “and”; a condition that tells them apart may be missing. Identical values can stand only once. Like-named read-outs stand apart in the source and are kept apart here.

How the values were obtained:
[1] = biological target: T1, serum purified human Complement Factor D (human, UniProt P00746 26-253); test: SPR Biacore, antibody on protein A chip, single cycle kinetics, 37 C;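 further: antibodies captured on the protein A surface to roughly 70 RU in HBS-EP+ buffer, with rate and affinity constants fitted using BIAevaluation software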
T1 construct: Serum purified protein flowed over the captured antibodies; also called CFD; human CFD

[2] = biological target: T1, serum purified human Complement Factor D; test: SPR Biacore, antibody on protein A chip, single cycle kinetics, 25 C;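 further: antibodies captured to roughly 70 RU on the protein A surface in HBS-EP+ running buffer, with kinetic constants derived by BIAevaluation fitting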
[3] = biological target: T1, serum purified human Complement Factor D; test: SPR Biacore, antibody on protein A chip, single cycle kinetics, 25 C; earlier run in the table (r34, Rmax 14.8);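 on koff: antibodies captured to roughly 70 RU on the protein A surface in HBS-EP+ running buffer, with kinetic constants derived by BIAevaluation fitting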;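 on kon: antibodies captured to roughly 70 RU on the protein A surface in HBS-EP+ running buffer, with kinetic constants derived by BIAevaluation fitting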
[4] = biological target: T1, serum purified human Complement Factor D; test: SPR Biacore, antibody on protein A chip, single cycle kinetics, 37 C; earlier run in the table (r34, Rmax 17.1);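 on kon: antibodies captured on the protein A surface to roughly 70 RU in HBS-EP+ buffer, with rate and affinity constants fitted using BIAevaluation software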
[5] = biological target: T2, human Complement Factor D (CFD), purified from human serum (human, UniProt P00746 26-253); test: SPR MX96, mAbs amine-coupled, CFD injected
T2 construct: serum purified (CompTech A136); also called serum purified CFD; hCFD-Comptech

[6] = biological target: T2, human Complement Factor D (CFD), …; test: SPR Biacore, full-length IgG captured on protein A chip, serum purified CFD
[7] = biological target: T3, recombinant human CFD mutant 1 (R157A, R207A), His-tagged (human, UniProt P00746 26-253); test: ELISA, Mut1 Binding, Bin 3
T3 construct: positions are linear positions in the mature protein; also called rhCFD-mut1-His; Mut1

[8] = biological target: T3, recombinant human CFD mutant 1 (R157A, …); test: ELISA
[9] = biological target: T4, human complement factor D purified from serum (human, UniProt P00746 26-253)
T4 construct: serum-purified (CompTech); also called hCFD-Comptech; CFD

[10] = biological target: T5, recombinant human CFD, His-tagged (human, UniProt P00746 26-253); test: SPR MX96
T5 construct: also called rhCFD-His

[11] = biological target: T6, recombinant cynomolgus CFD, His-tagged (cynomolgus); test: SPR MX96
T6 construct: also called rcyCFD-His; recombinant Cyno-CFD

[12] = biological target: T4, human complement factor D purified from …; test: SPR MX96
[13] = biological target: T4, human complement factor D purified from …; remark: listed apart in the source
[14] = biological target: T3, recombinant human CFD mutant 1 (R157A, …); test: ELISA; remark: listed apart in the source
[15] = biological target: T3, recombinant human CFD mutant 1 (R157A, …); test: SPR MX96
[16] = biological target: T2, human Complement Factor D (CFD), …; test: cell-based or functional assay
[17] = biological target: Histidine-tagged FcγRI (UniProt P12314 16-288, limits assumed); test: SPR (Biacore T200, 25 C), His-tagged FcγRI captured on anti-His CM5 chip, antibody injected, single cycle kinetics
[18] = biological target: T7, purified human C1q (human, UniProt P02745 23-245; P02746 28-253; P02747 29-245); test: ELISA, antibody coated in a 1:2 titration from 10 ug/mL, purified human C1q at 5 ug/mL, HRP anti-human C1q
T7 construct: also called Complement C1q

[19] = biological target: Histidine-tagged FcγRIIIa (UniProt P08637 17-208, limits assumed); test: SPR (Biacore T200, 25 C), His-tagged FcγRIIIa captured on anti-His CM5 chip, antibody injected, single cycle kinetics
Chain of Histidine-tagged FcγRIIIa (P08637 17-208 limits assumed): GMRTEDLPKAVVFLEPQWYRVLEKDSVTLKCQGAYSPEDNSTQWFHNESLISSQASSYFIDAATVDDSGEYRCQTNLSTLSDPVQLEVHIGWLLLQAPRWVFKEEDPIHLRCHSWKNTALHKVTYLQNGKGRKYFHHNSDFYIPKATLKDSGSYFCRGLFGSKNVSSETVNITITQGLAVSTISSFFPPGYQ

T2 sequence (P00746 26-253): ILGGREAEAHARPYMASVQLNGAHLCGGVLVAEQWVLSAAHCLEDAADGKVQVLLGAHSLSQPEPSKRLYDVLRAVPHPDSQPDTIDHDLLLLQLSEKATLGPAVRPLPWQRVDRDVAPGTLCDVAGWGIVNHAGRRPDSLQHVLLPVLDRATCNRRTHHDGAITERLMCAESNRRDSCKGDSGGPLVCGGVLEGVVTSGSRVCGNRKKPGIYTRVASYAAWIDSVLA
T5 sequence (P00746 26-253 limits assumed): as the sequence (P00746 26-253) above
T1 sequence (P00746 26-253): as above
T4 sequence (P00746 26-253): as above
T3 sequence (P00746 26-253 R182A/R232A limits assumed): as the sequence (P00746 26-253) above, with R157A, R207A counted along it
T7 sequence (P02745 23-245 limits assumed, chain 1 of 3): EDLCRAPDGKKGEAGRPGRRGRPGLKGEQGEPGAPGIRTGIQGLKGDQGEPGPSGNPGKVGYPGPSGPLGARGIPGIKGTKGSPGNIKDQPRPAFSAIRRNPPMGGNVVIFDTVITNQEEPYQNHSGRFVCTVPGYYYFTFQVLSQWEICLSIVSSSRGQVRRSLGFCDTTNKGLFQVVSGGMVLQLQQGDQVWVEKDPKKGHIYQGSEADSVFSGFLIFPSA
T7 sequence (P02746 28-253 limits assumed, chain 2 of 3): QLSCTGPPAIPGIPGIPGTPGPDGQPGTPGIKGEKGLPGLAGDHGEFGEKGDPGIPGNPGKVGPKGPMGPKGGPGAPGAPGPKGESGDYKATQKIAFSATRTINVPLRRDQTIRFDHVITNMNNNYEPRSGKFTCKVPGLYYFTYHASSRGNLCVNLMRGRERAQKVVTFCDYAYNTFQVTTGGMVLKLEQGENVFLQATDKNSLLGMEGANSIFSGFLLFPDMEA
T7 sequence (P02747 29-245 limits assumed, chain 3 of 3): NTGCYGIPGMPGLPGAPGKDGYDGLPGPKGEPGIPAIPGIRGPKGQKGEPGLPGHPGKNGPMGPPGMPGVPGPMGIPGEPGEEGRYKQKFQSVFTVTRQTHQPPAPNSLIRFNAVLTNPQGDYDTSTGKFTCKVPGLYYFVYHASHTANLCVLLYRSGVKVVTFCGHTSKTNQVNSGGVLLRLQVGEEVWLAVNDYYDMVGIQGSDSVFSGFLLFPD
Chain of Histidine-tagged FcγRI (P12314 16-288 limits assumed): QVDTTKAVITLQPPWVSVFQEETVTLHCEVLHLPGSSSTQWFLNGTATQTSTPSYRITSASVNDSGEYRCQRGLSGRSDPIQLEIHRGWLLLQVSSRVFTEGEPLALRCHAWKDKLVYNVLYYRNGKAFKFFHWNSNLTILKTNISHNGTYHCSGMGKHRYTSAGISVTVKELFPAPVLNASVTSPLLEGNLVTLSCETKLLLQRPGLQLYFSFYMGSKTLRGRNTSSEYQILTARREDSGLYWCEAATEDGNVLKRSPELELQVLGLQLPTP

B1: 54I59D / 54G101V (antibody, V domains shown)
VH: EVQLVESGGGLVQPGGSLRLSCAASGYTFTDYYMNWVRQAPGKGLEWIGDINPITGDTDYNADFKRRFTFSLDTSKSTAYLQMNSLRAEDTAVYYCTREGPSFAYWGQGTLVTVSS
VL: DIQLTQSPSSLSASVGDRVTITCRSSQTIVHSNGDTYLEWYQQKPGKAPNLLIGKVSNRFSGVPSRFSGSGSGTDFTLTISSLQPEDFATYYCFQGSHVPVTFGQGTKVEIK
notes: KCD119 TAF variant; full antibody captured on protein A; also called 54I59D / 4G101V 5
For B1, which kon [1] is on record?
The kon was 2.78e+07 M⁻¹ s⁻¹ and 1.36e+07 M⁻¹ s⁻¹.

What about the koff [2] of the same binder?
The koff was 9.56e-05 s⁻¹.

What about the kon [2] of the same binder?
The kon was 1.15e+07 M⁻¹ s⁻¹ and 5.91e+06 M⁻¹ s⁻¹.

What about the Kd [3] of the same binder?
Its Kd is 0.00833 nM.

And the Kd [4]?
The Kd was 0.00774 nM.

B2: KCD119 (antibody, V domains shown)
VH: EVQLQQSGPELVKPGASVKISCKASGYTFTDYYTNWMRQRHGESLEWIGDINPNTGDTSYNQKFRVKATLTVDKSSGTAYMGLRSLTSEDSAVYYCTREGPSFAYWGQGTLVTVSA
VL: DVLMTQTPLSLPVSLGDQASISCRSSQTIVHSNGDTYLEWYLQKPGQSPNLLIYKVSNRFSGVPDRFSGSGSGTDFTLKISRVEAEDLGVYYCFQGSHVPPTFGGGTTLEIK
notes: mouse variable domains; full IgG, captured on protein A; also called KCD119-mouse monoclonal antibody; Mouse KCD119
B2 was tested. Which Kd [5] did it give?
The Kd was 0.375 nM and 0.857 nM.

And the Kd [6]?
The Kd was 0.04 nM.

B3: KCD023 (antibody, V domains shown)
VH: EVLLQQSGPELVKPGASVKIPCKASGYTFTDYNIDWVKQSHGKSLEWIGDINPNNGGINYNQKFKGKATLTVDKSSSTAYMELRSLTSEDTAVYYCGTGDYAYWGQGTLVTVSA
VL: QIVLTQSPAFMSASPGEKVTLTCSASSSVSSSYLYWYQQKPGSSPKLWIYSTSNLASGVPGRFSGSGSGTSYSLTISSMEAEDAASYFCHQWTSYPPTFGAGTKLELK
notes: chimeric
Which results are given for B3?
binding result [7]: no binding; Mut1 Binding (% wt) [8]: 7.64 % wt; Kd [9]: 1770 nM; Kd [10]: 4.1 nM; Kd [11]: 6 nM; Kd [12]: 5.3 nM

B4: KCD070 (antibody, V domains shown)
VH: EIQLQQTGPELVKPGASVKISCKASGYSFTDYIILWVKQSHGKSLEWIGNINPYYDYTSYNLKFKGKATLTVDKSSSTAYMQLNSLTSEDSAVYYCARSDGYYGGDYWGQGTSVTVSS
VL: DIVMTQSHKFMSTSVGDRVSITCKASQDVGTAVAWYQQKPGQSPKLLIYWASTRHTGVPDRFTGSGSGTDFTLTINNVQSEDLADYFCQQYSSYPWTFGGGTTLEIK
notes: chimeric
B4 was tested. Which Kd [13] did it give?
The Kd was 1.77 nM.

And the “Mut1 Binding (% wt)” value [14]?
The value was 84.6 % wt.

What about the Kd [10] of the same binder?
The Kd was 3.3 nM.

What about the Kd [11] of the same binder?
Its Kd is 4.9 nM.

What about the Kd [12] of the same binder?
Its Kd is 3.8 nM.

And the Kd [15]?
The Kd was 0.7 nM.

B5: OG1965 (antibody, IgG1)
heavy: EVQLVESGGGLVQPGGSLRLSCAASGYTFTDYYINWVRQAPGKGLEWIGDINPITGDTDYNADFKRRFTFSLDTSKSTAYLQMSSLRAEDTAVYYCTREGPSFAYWGQGTLVTVSSASTKGPSVFPLAPSSKSTSGGTAALGCLVKDYFPEPVTVSWNSGALTSGVHTFPAVLQSSGLYSLSSVVTVPSSSLGTQTYICNVNHKPSNTKVDKKVEPKSCDKTHTCPPCPAPEAAGAPSVFLFPPKPKDTLMISRTPEVTCVVVDVSHEDPEVKFNWYVDGVEVHNAKTKPREEQYNSTYRVVSVLTVLHQDWLNGKEYKCKVSNKALPAPIEKTISKAKGQPREPQVYTLPPSREEMTKNQVSLTCLVKGFYPSDIAVEWESNGQPENNYKTTPPVLDSDGSFFLYSKLTVDKSRWQQGNVFSCSVMHEALHNHYTQKSLSCSPGK
light: DIQLTQSPSSLSASVGDRVTITCRSSQTIVHSNGDTYLEWYQQKPGKAPNLLIRKVSNRFSGVPSRFSGSGSGTDFTLTISSLQPEDFATYYCFQGSHVPVTFGQGTKVEIKRTVAAPSVFIFPPSDEQLKSGTASVVCLLNNFYPREAKVQWKVDNALQSGNSQESVTEQDSKDSTYSLSSTLTLSKADYEKHKVYACEVTHQGLSSPVTKSFNRGEC
notes: humanized IgG1 kappa with L234A, L235A, G237A and L443C (EU); also called 34I54I59D84S/54R101V; 34I54I59D84S (heavy) / 54R101V (light)
What does the source list for B5?
EC50, block of C3bB cleavage (Bb ELISA) [16]: 1.9 nM; EC50, block of Factor B cleavage (western blot) [16]: 7 nM; binding result [17]: no binding; binding result [18]: no binding (tested: 10 ug/mL); binding result [19]: no binding

B6: KCD009 (antibody, V domains shown)
VH: QIQLVQSGPELKKPGETVKISCKASGYIFRNYGMNWVKQGPGKGLKWMGWINTYTGEPTYADDFKGRFAFSLETSASTAYLQISNLKNEDTATYFCVRDGPGFAYWGQGTLVTVSA
VL: DVLMTQTPLSLPVSLGDQASISCRSSLIIEHSDGNTYLEWYLQKPGQSPKLLIYKVSNRFSGVPDRFSGSGSGTDFTLKISRVEADDLGVYYCFQGSHVPVTFGAGTNLELK
notes: chimeric
Does B6 bind [7]?
Result: no binding

And the “Mut1 Binding (% wt)” value [8]?
Its value is 5.15 % wt.

What about the Kd [9] of the same binder?
The Kd was 3.47 nM.

What about the Kd [10] of the same binder?
Its Kd is 4 nM.

And the Kd [11]?
Its Kd is 9.9 nM.

And the Kd [12]?
The Kd was 5.6 nM.

B7: KCD048 (antibody, V domains shown)
VH: EVQLQQSGADLVKPGASVKLSCTASGFNIKATYMHWVRQRPEKGLEWIGRIDPANGHTIYDPQFQGKATITSDTSSNTAYLQLNSLTSEDTAVYYCAEAMDYWGQGTSVTVSS
VL: QIVLTQSPAIMSASPGEKVTLTCSATSSVSYMYWYQQKPGSSPRLLIYDTSNLASGVPVRFSGSGSGTSYSLTISRMEAEDDATYYCQQWSNYPFTFGGGTKLEIK
notes: chimeric
Which results are given for B7?
Kd [13]: 0.997 nM; Mut1 Binding (% wt) [14]: 62.3 % wt; Kd [11]: 21 nM; Kd [12]: 1.9 nM; Kd [15]: 0.83 nM
